Results as given in patent JP2012055312A.

Biological target: ビオチン−IL−6 (UniProt P05231)
Experiment: Luminex-based assay of IL-6 binding to IL-6 receptor (solid-phase sIL-6R/gp80)

Sequence of UniProt P05231 (P05231 30-212 limits assumed): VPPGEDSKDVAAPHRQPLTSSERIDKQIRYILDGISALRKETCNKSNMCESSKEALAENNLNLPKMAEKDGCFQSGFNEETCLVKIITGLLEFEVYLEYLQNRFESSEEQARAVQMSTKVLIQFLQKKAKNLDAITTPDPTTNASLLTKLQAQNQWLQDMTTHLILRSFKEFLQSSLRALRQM

B1: キメラCLB8 (antibody, V domains shown)
VH: EVQLVESGGKLLKPGGSLKLSCAASGFTFSSFAMSWFRQSPEKRLEWVAEISSGGSYTYYPDTVTGRFTISRDNAKNTLYLEMSSLRSEDTAMYYCARGLWGYYALDYWGQGTSVTVSS
VL: QIVLIQSPAIMSASPGEKVTMTCSASSSVSYMYWYQQKPGSSPRLLIYDTSNLASGVPVRFSGSGSGTSYSLTISRMEAEDAATYYCQQWSGYPYTFGGGTKLEIK
- percent inhibition of IL-6 binding to IL-6 receptor: 100%
